doi:10.1101/2025.04.04.646765, “Molecular basis for multidrug efflux by an anaerobic RND transporter” (bioRxiv, 2025)
Changes are numbered by the printed parent chain. Numbers in names are those of the source.

Target: the molecule itself
Assay: cryo-EM structure

B1: Escherichia coli multidrug transporter MdtF, wild type (MdtF-6xHis) in SMA lipid particles (natural protein)
chain: MANYFIDRPVFAWVLAIIMMLAGGLAIMNLPVAQYPQIAPPTITVSATYPGADAQTVEDSVTQVIEQNMNGLDGLMYMSSTSDAAGNASITLTFETGTSPDIAQVQVQNKLQLAMPSLPEAVQQQGISVDKSSSNILMVAAFISDNGSLNQYDIADYVASNIKDPLSRTAGVGSVQLFGSEYAMRIWLDPQKLNKYNLVPSDVISQIKVQNNQISGGQLGGMPQAADQQLNASIIVQTRLQTPEEFGKILLKVQQDGSQVLLRDVARVELGAEDYSTVARYNGKPAAGIAIKLAAGANALDTSRAVKEELNRLSAYFPASLKTVYPYDTTPFIEISIQEVFKTLVEAIILVFLVMYLFLQNFRATIIPTIAVPVVILGTFAILSAVGFTINTLTMFGMVLAIGLLVDDAIVVVENVERVIAEDKLPPKEATHKSMGQIQRALVGIAVVLSAVFMPMAFMSGATGEIYRQFSITLISSMLLSVFVAMSLTPALCATILKAAPEGGHKPNALFARFNTLFEKSTQHYTDSTRSLLRCTGRYMVVYLLICAGMAVLFLRTPTSFLPEEDQGVFMTTAQLPSGATMVNTTKVLQQVTDYYLTKEKDNVQSVFTVGGFGFSGQGQNNGLAFISLKPWSERVGEENSVTAIIQRAMIALSSINKAVVFPFNLPAVAELGTASGFDMELLDNGNLGHEKLTQARNELLSLAAQSPNQVTGVRPNGLEDTPMFKVNVNAAKAEAMGVALSDINQTISTAFGSSYVNDFLNQGRVKKVYVQAGTPFRMLPDNINQWYVRNASGTMAPLSAYSSTEWTYGSPRLERYNGIPSMEILGEAAAGKSTGDAMKFMADLVAKLPAGVGYSWTGLSYQEALSSNQAPALYAISLVVVFLALAALYESWSIPFSVMLVVPLGVVGALLATDLRGLSNDVYFQVGLLTTIGLSAKNAILIVEFAVEMMQKEGKTPIEAIIEAARMRLRPILMTSLAFILGVLPLVISHGAGSGAQNAVGTGVMGGMFAATVLAIYFVPVFFVVVEHLFARFKKA
notes: also called MdtF^WT; apo-MdtF^WT; source: E. coli C43(DE3) ΔacrAB, extracted in SMALPs, purified (Ni-NTA, SEC)
B1 was tested, and the “stoichiometry N” value was 3.

B2: Escherichia coli multidrug transporter MdtF, single-point mutant V610F (MdtF-6xHis) in SMA lipid particles (natural protein)
chain: B1 chain with V610F
notes: also called MdtF^V610F; apo-MdtF^V610F; source: E. coli C43(DE3) ΔacrAB, extracted in SMALPs, purified (Ni-NTA, SEC)
B2: binds.
